Measured values reported in paper PMC4405178 (Biochemistry, 2015).
Positions count from the first letter of the chain named.

Columns and labels:
Test in all cases: flow cytometry on cells
[1] = biological target: T1, C-terminally truncated Ste2p H94Y (Saccharomyces cerevisiae, UniProt D6VTK4 1-303, H94Y)
T1 sequence (looked up): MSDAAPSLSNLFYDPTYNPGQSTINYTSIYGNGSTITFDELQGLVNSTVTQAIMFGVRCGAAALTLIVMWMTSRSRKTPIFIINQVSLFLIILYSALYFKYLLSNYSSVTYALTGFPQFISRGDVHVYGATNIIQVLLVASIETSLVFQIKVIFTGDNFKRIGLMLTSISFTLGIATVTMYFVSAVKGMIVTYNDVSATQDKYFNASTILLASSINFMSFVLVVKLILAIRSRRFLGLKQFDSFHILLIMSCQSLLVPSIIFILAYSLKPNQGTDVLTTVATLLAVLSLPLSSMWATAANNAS

[2] = biological target: T2, C-terminally truncated Ste2p S95Y (Saccharomyces cerevisiae, UniProt D6VTK4 1-303, S95Y)
T2 sequence (looked up): T1 sequence (looked up) with Y94H, S95Y

[3] = biological target: T3, C-terminally truncated wild-type Ste2p (Saccharomyces cerevisiae, UniProt D6VTK4 1-303)
T3 sequence (looked up): T1 sequence (looked up) with Y94H

[4] = biological target: T4, C-terminally truncated Ste2p F38Y (Saccharomyces cerevisiae, UniProt D6VTK4 1-303, F38Y)
T4 sequence (looked up): T1 sequence (looked up) with F38Y, Y94H

[5] = biological target: T5, full-length wild-type Ste2p (Saccharomyces cerevisiae, UniProt D6VTK4 1-431)
T5 sequence (looked up): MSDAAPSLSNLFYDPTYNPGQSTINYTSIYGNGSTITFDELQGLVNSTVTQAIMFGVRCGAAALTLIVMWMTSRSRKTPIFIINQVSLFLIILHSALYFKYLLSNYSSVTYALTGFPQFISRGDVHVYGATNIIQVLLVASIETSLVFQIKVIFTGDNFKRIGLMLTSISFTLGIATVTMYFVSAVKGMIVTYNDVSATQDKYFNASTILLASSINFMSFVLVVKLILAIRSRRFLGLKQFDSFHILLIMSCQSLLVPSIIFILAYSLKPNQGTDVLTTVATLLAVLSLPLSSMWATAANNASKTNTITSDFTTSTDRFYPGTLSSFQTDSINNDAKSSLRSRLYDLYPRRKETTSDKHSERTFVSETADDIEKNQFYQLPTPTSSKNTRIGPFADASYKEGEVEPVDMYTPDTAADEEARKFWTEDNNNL

full-length Ste2p S104Y = biological target: T6, full-length Ste2p S104Y (Saccharomyces cerevisiae, UniProt D6VTK4 1-431, S104Y)
T6 sequence (looked up): T5 sequence (looked up) with S104Y

Kd [1]: 47 ± 8.1 nM | Kd [2]: 8.1 ± 7.5 nM | Kd [3]: 19 ± 3.8 nM | Kd [4]: 59 ± 11 nM | Kd [5]: 7.3 ± 0.9 nM | Kd (full-length Ste2p S104Y): 2 ± 0.7 nM
B1: [K^7(NBD),Nle^12] α-factor (peptide)
chain: WHWLQLKPGQPMY
modifications: NBD (7-nitrobenz-2-oxa-1,3-diazol-4-yl) conjugated to the lysine at position 7; norleucine at position 12 in place of methionine
